Measurements: patent US20250376498A1, “FUSION PROTEINS COMPRISING AN IMPROVED GLP-1 RECEPTOR AGONIST AND USES THEREOF” (Guangzhou Innogen Pharmaceutical Group Co., Ltd., priority 2022, published 2025)
“And” between values parts separate entries of the source, which are not always exact repeats. Equal entries are not always repeated.

Experiments:
INS-1 cells = assay: Assessment of YN-011 activity by inducing cAMP levels in INS-1 cells; format: cell-based; conditions: YN-011 120 nM
Method: Natural GLP-1 stimulates insulin secretion from beta cells in a glucose-dependent manner. […] INS-1 cells were serum-starved and glucose-starved, then treated with different amounts of purified YN-011 in the presence of 0, 5, or 20 mM glucose as indicated.
Furthermore, the blank control (SF1) and the two samples with the […] hydroxylation levels (SF4 and SF5) were tested for the biological activity of YN-011 using the method described in Example 1. […] Thus, higher hydroxylation levels tend to increase the biological activity.

[1] = human, in vivo
obese rhesus monkeys = assay: Obese rhesus monkeys, body weight; format: in vivo; conditions: for body weight decrease compared to baseline: at D28
Text: The obese rhesus monkeys used in this study were sourced from Sichuan Primate Biotechnology Co., Ltd. Fifteen male obese rhesus monkeys, aged 8-21 years (equivalent to 30-60 years in humans), with a body weight of 9.25-15.70 kg, fasting plasma glucose (FPG) levels between 5.50-8.58 mmol/L, and HbA1c levels between 4.5-5.0%, were selected. These monkeys were within the first year of disease onset and had not received any medication. Their liver and kidney functions were normal. The animals were stratified based on FPG levels and randomly assigned to different groups. The selected animals underwent an intravenous glucose tolerance test (IVGTT) to measure blood glucose and insulin levels before the administration of the test compounds. The experimental groups included a placebo group and two YN-011 treatment groups: YN-011 50 μg/kg and YN-011 25 μg/kg, with 5 animals in each group. The treatments were administered via subcutaneous injections (SC) once a week for 4 consecutive weeks, specifically on Day 0 (DO), Day 7 (D7), Day 14 (D14), and Day 21 (D21).

patients with T2DM = conditions: 1 mg YN-011, 24 weeks
NASH Rhesus monkeys = assay: NASH Rhesus monkeys, liver biopsy histology (NAS and fibrosis scores); format: in vivo; set-up: key to Fibrosis score: 0: No fibrosis observed; 1a: Mild perisinus fibrosis in zone 3; 1b: Moderate sinus fibrosis in zone 3; 1c: Periportal fibrosis; 2: Perisinus and periportal fibrosis; 3: Bridging fibrosis; 4: Cirrhosis; key to NAS Score: NAFLD activity score (NAS) from steatosis, inflammation, ballooning grades; conditions: for Fibrosis score / NAS Score / Steatosis score: individual animals
Method: Amount of specimens collected: ≤2 needles, each needle with a specimen length≤1.5 cm, and the total cumulative specimen length≤3 cm.
Approximately 2 cm of the collected tissue was immediately placed in 4% buffered formalin at room temperature and fixed for at least 24 hours. After appropriate modifications, dehydration, embedding, sectioning, HE staining, and Masson staining were performed.
Tissue sections were stained with H&E and Masson stains. Pathological slides were evaluated by a pathologist according to the diagnostic and treatment guidelines for non-alcoholic fatty liver disease (NAFLD) jointly drafted by the American Association for the Study of Liver Diseases (AASLD), the American College of Gastroenterology (ACG), and the American Gastroenterological Association (AGA). The diagnostic criteria can be found in Table 2 and Table 3.
After adequate fixation of the liver biopsy specimens, they were dehydrated, infiltrated with paraffin, embedded, and sectioned (5 μm) directly.
Routine deparaffinization of the sections was performed. The sections were sequentially immersed in 100% ethanol I, 100% ethanol II, 95%, 85%, and 75% ethanol for 3 minutes each. They were then rinsed with tap water for 3 minutes, stained with hematoxylin-eosin (HE) staining solution for 12 minutes, rinsed with tap water for 5 minutes, and stained with eosin Y solution (aqueous) for 3 minutes. Dehydration was carried out rapidly with 95% ethanol, followed by two rounds of dehydration with absolute ethanol for 2-5 minutes each. The sections were then cleared with xylene twice for 10 minutes each. Neutral mounting medium was applied, and microscopic examination was performed.
Routine deparaffinization of the sections was performed. The sections were stained with Weigert's iron hematoxylin for 5-7 minutes, and simultaneously, weak acid working solution was prepared by mixing distilled water and weak acid solution in a ratio of 2:1. The sections were rinsed with weak acid working solution for 1 minute. After rinsing with phosphomolybdic acid solution for 1-2 minutes, the sections were directly placed in aniline blue staining solution for 1-2 minutes, followed by rinsing with the prepared weak acid working solution for 1 minute. Dehydration was carried out rapidly with 95% ethanol, followed by two rounds of dehydration with absolute ethanol for 2-5 minutes each. The sections were then cleared with xylene twice for 10 minutes each. Neutral mounting medium was applied, and microscopic examination was performed.
The sections were observed under a microscope (with a digital imaging system), and pathological diagnosis and photography were performed. Based on the histopathological diagnosis, the HE and Masson results were scored according to the scoring criteria for non-alcoholic fatty liver disease activity score (NAS, Table 8) and liver fibrosis staging (Table 9).
Fifteen Rhesus monkeys were divided into 3 groups, with 5 monkeys in each group. They received subcutaneous injections of 0 (solvent control, placebo control group), 0.050, or 0.150 mg/kg of YN-011 once a week for 13 weeks (QW). The 0.150 mg/kg YN-011 group received adaptive dosing (0.1 mg/kg for the first dose, followed by 0.150 mg/kg for the remaining 12 doses).
To investigate whether YN-011 treatment led to histological improvements in the liver, liver biopsy specimens were collected from all Rhesus monkeys before the first injection and on day 89 after the first injection. Liver slices were stained with HE and Masson stains for histological analysis. The degrees of steatosis, inflammation, hepatocyte ballooning, and fibrosis were scored according to the standards for NAFLD activity and NASH progression.

[2] = 50 μg/kg group, Day 89 post-injection
[3] = 150 μg/kg group, Day 89 post-injection

B1: YN-011: GLP-1 fusion protein of SEQ ID NO: 7: GLP-1 (A8G, G22E, R36G), linker peptide and IgG2/Fc domain (C222S, A330S, P331S) (protein)
chain: HGEGTFTSDVSSYLEEQAAKEFIAWLVKGGGSSGAPPPSGGGGSERKSCVECPPCPAPPVAGPSVFLFPPKPKDTLMISRTPEVTCVVVDVSHEDPEVQFNWYVDGVEVHNAKTKPREEQFNSTFRVVSVLTVVHQDWLNGKEYKCKVSNKGLPSSIEKTISKTKGQPREPQVYTLPPSREEMTKNQVSLTCLVKGFYPSDIAVEWESNGQPENNYKTTPPMLDSDGSFFLYSKLTVDKSRWQQGNVFSCSVMHEALHNHYTQKSLSLSPG
cAMP levels (INS-1 cells; 5 mM glucose, comparable to exendin-4): significantly increased | cAMP levels (INS-1 cells; absence of glucose): maintained basal levels of cAMP | half-life compared with SUPA-1, Dulaglutide and Semaglutide [1]: significantly longer half-life than Dulaglutide and Semaglutide | plasma concentration steady state [1]: reached a steady state after the fourth dose | median Tmax ([1]; sc): 60 to 84 h | BW (obese rhesus monkeys; 25 μg/kg SC once a week, D 1 baseline value (before administration)): 12.72 kg | BW (obese rhesus monkeys; 25 μg/kg SC once a week, D 7): 12.39 kg | BW (obese rhesus monkeys; 25 μg/kg SC once a week, D 14): 12.16 kg | BW (obese rhesus monkeys; 25 μg/kg SC once a week, D 21): 12.06 kg | BW (obese rhesus monkeys; 25 μg/kg SC once a week, D 28): 11.84 kg | BW (obese rhesus monkeys; 25 μg/kg SC once a week, D 35): 12.05 kg | BW (obese rhesus monkeys; 25 μg/kg SC once a week, D 42): 12.03 kg | BW compared to the placebo group (obese rhesus monkeys; 25 μg/kg, D14 and D21 (P<0.05)): significantly decreased | body weight decrease compared to baseline (obese rhesus monkeys; 25 μg/kg): 6.17% | BW (obese rhesus monkeys; 50 μg/kg SC once a week, D 1 baseline value (before administration)): 10.29 kg | BW (obese rhesus monkeys; 50 μg/kg SC once a week, D 7): 9.85 kg | BW (obese rhesus monkeys; 50 μg/kg SC once a week, D 14): 9.64 kg | BW (obese rhesus monkeys; 50 μg/kg SC once a week, D 21): 9.63 kg | BW (obese rhesus monkeys; 50 μg/kg SC once a week, D 28): 9.52 kg | BW (obese rhesus monkeys; 50 μg/kg SC once a week, D 35): 9.79 kg | BW (obese rhesus monkeys; 50 μg/kg SC once a week, D 42): 9.81 kg | body weight decrease compared to baseline (obese rhesus monkeys; 50 μg/kg): 7.32% | BW compared to the placebo group (obese rhesus monkeys; 50 μg/kg, from D7 to D28 (P<0.05 or P<0.01)): significantly or extremely significantly decreased | reduction in HbA1c levels (patients with T2DM): 1.73% | Fibrosis score (NASH Rhesus monkeys; 50 μg/kg group, Baseline): 1a (2×) and 1c (2×) and 0-1a | NAS Score (NASH Rhesus monkeys; 50 μg/kg group, Baseline): 3 (2×) and 4 (3×) | Steatosis score (NASH Rhesus monkeys; 50 μg/kg group, Baseline): 1 (5%~33%) (4×) and 2 (34%~66%) | Fibrosis score (NASH Rhesus monkeys; [2]): 1a (2×) and 0~1a (3×) | NAS Score (NASH Rhesus monkeys; [2]): 2 (3×) and 1 (2×) | Steatosis score (NASH Rhesus monkeys; [2]): 0 (<5%) (4×) and 1 (5%~33%) | Fibrosis score (NASH Rhesus monkeys; 150 μg/kg group, Baseline): 1a (2×) and 1b (2×) and 0~1a | NAS Score (NASH Rhesus monkeys; 150 μg/kg group, Baseline): 3 (2×) and 4 (3×) | Steatosis score (NASH Rhesus monkeys; 150 μg/kg group, Baseline): 2 (34%~66%) (4×) and 3 (>66%) | Fibrosis score (NASH Rhesus monkeys; [3]): 1a (2×) and 1b and 0~1a (2×) | NAS Score (NASH Rhesus monkeys; [3]): 1 (3×) and 2 (2×) | Steatosis score (NASH Rhesus monkeys; [3]): 1 (5%~33%) (3×) and 0 (<5%) (2×) | NAS and liver fibrosis scores (liver biopsy) (NASH Rhesus monkeys; NASH Rhesus monkeys treated with YN-011): reduction in both NAS and liver fibrosis scores
